The chains are these.
B1: INX904 | VSTB103 (antibody, V domains shown)
VH: EVQLVQSGAEVKKPGESLKISCKGSGYSFTSYWIGWVRQMPGKGLEWMGIIYPGDSDTRYSPSFQGQVTISADKSISTAYLQWSSLKASDTAMYYCARDDALYGGYYLDYWGQGTLVTVSS
VL: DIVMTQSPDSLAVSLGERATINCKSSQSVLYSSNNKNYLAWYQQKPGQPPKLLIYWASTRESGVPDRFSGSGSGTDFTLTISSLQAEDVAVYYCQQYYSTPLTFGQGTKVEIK
notes: INX name = the VSTB variable regions with human IgG2 constant regions
B2: VSTB100 (antibody, V domains shown)
VH: EVQLVQSGAEVKKPGESLKISCKGSGYSFTSYWIGWVRQMPGKGLEWMGIIYPGDSDTRYSPSFQGQVTISADKSISTAYLQWSSLKASDTAMYYCARDVSSFYGYSPMFDYWGQGTLVTVSS
VL: EIVLTQSPATLSLSPGERATLSCRASQSVSSYLAWYQQKPGQAPRLLIYDASNRATGIPARFSGSGSGTDFTLTISSLEPEDFAVYYCQQRSNWPLTFGQGTKVEIKR
B3: VSTB104 (antibody, V domains shown)
VH: B2 VH with V100A, S101N, G105S, Y106A, S107A, P108S, M109I
VL: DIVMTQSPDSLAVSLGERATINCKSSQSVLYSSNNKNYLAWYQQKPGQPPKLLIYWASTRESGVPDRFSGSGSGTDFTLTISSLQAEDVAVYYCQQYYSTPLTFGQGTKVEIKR
B4: INX909 | VSTB67 (antibody, V domains shown)
VH: QVQLVQSGAEVKKPGASVKVSCKASDYIFSSYWIQWVRQAPGQGLEWMGEIFPGSGGTNYNEKFKGRVTMTRDTSTSTVYMELSSLRSEDTAVYYCARAIYYDYDMYYFDSWGQGTTVTVSS
VL: DIQMTQSPSSLSASVGDRVTITCRASQDISSYLNWYQQKPGKVPKLLIYYTSRLHSGVPSRFSGSGSGTDFTLTISSLQPEDVATYYCQHVNTLPWTFGQGTKLEIKR
B5: INX911 | VSTB76 (antibody, V domains shown)
VH: QVQLVQSGAEVKKPGASVKVSCKASGYTFTDYWINWVRQAPGQGLEWMGNIYPSHSYTNYNQEFKDRVTMTRDTSTSTVYMELSSLRSEDTAVYYCARGGYRYPYYAMDYWGQGTTVTVSS
VL: AIQLTQSPSSLSASVGDRVTITCGASENIYGALNWYQQKPGKAPKLLIYGATNLADGVPSRFSGSGSGTDFTLTISSLQPEDFATYYCQNVLSTPYTFGQGTKLEIKR
B6: INX919 | VSTB115 (antibody, V domains shown)
VH: QVQLVQSGAEVKKPGSSVKVSCKASGGTFSSYAISWVRQAPGQGLEWMGGIIPIFGTANYAQKFQGRVTITADESTSTAYMELSSLRSEDTAVYYCARSSYGWSYEFDYWGQGTLVTVSS
VL: DIQMTQSPSSLSASVGDRVTITCRASQSIRTYLNWYQQKPGKAPKLLIYAASSLQSGVPSRFSGSGSGTDFTLTISSLQPEDFATYYCQQAYSNPITFGQGTKVEIKR
B7: VSTB114 (antibody, V domains shown)
VH: B6 VH with S99H, Y101I, S104V, Y105A, F107L
VL: B6 VL with R30A, Y32S, A50Y, A91G, Y92A, S93Y, N94Y, I96L
B8: VSTB111 (antibody, V domains shown)
VH: B6 VH
VL: B6 VL with R30N, Y32D, A91N, Y92R, S93G, N94S
B9: VSTB116 (antibody, V domains shown)
VH: B6 VH
VL: B6 VL with R30N, Y32N, Y92R, S93D, N94T
B10: VSTB109 (antibody, V domains shown)
VH: B6 VH
VL: B6 VL with R30A, A91N, Y92H, S93N, N94R
B11: VSTB108 (antibody, V domains shown)
VH: B6 VH with S99N, S100T, Y101F, Y105G, F107L
VL: B6 VL with R30S, T31N, Y32R, A50S, A91N, Y92H, S93D
B12: VSTB105 (antibody, V domains shown)
VH: B6 VH
VL: B6 VL with R30A, Y32N, A91N, Y92D, S93D, N94R
B13: INX916 | VSTB107 (antibody, V domains shown)
VH: B6 VH
VL: B6 VL with R30N, T31N, Y32D, A91N, Y92R, S93A, N94T
B14: INX915 | VSTB106 (antibody, V domains shown)
VH: B6 VH
VL: B6 VL with Y32D, A50S, A91N, Y92E, S93R, N94T
B15: INX918 | VSTB113 (antibody, V domains shown)
VH: B6 VH with S99H, Y101I, S104V, Y105A, F107L
VL: B6 VL with R30A, Y32D, Y92H, S93W, N94Y, I96L
B16: INX917 | VSTB110 (antibody, V domains shown)
VH: B6 VH with S99H, Y101I, S104V, Y105A, F107L
VL: B6 VL with R30N, Y32D, A91G, Y92A, N94D
B17: INX913 | VSTB85 (antibody, V domains shown)
VH: QVQLVQSGAEVKKPGASVKVSCKASGYTFTDYAMHWVRQAPGQGLEWMGVIDTYYGNTNYNQKFKGRVTMTRDTSISTAYMELSRLRSDDTAVYYCARGGGDALDYWGQGTTVTVSS
VL: DIQMTQSPSSLSASVGDRVTITCKASQSVSNDVVWYQQKPGKAPKLLIYYASNRYIGVPSRFSGSGSGTDFTFTISSLQPEDIATYYCQQGYTSLRTFGQGTKLEIKR
B18: INX912 | VSTB84 (antibody, V domains shown)
VH: QVQLVQSGAEVKKPGASVKVSCKASGYTFTSYWMHWVRQAPGQGLEWMGYINPSTGYPGYNQKFKDRVTMTRDTSTSTVYMELSSLRSEDTAVYYCARSYYDYDGGAWFAYWGQGTTVTVSS
VL: DIVMTQTPLSLSVTPGQPASISCRASESVEYYGTSLMQWYLQKPGQPPQLLIYAASNVESGVPDRFSGSGSGTDFTLKISRVEAEDVGVYYCQQSRKVPSTFGQGTKLEIKR
B19: INX903 | VSTB95 (antibody, V domains shown)
VH: EVQLVESGGGLVQPGGSLRLSCAASGFTFRNYGMSWVRQAPGKGLEWVASIISGGSYTYYPDSVKGRFTISRDNAKNSLYLQMNSLRAEDTAVYYCARIYDHDGDYYAMDYWGQGTTVTVSS
VL: DIVMTQSPLSLPVTPGEPASISCRSSQSIVHSNGNTYLEWYLQKPGQSPQLLIYKVSNRFSGVPDRFSGSGSGTDFTLKISRVEAEDVGVYYCFQGSHVPWTFGQGTKLEIK
notes: INX903 = VSTB95 variable regions with wild-type human IgG2 constant regions
B20: INX905 | VSTB53 (antibody, V domains shown)
VH: QVQLVQSGAEVKKPGASVKVSCKASGYTFTHYTIHWVRQAPGQGLEWMGYIIPSSGYSEYNQKFKDRVTMTRDTSTSTVYMELSSLRSEDTAVYYCARGAYDDYYDYYAMDYWGQGTLVTVSS
VL: B19 VL with S28T, G96A
notes: as for B1
B21: INX910 | VSTB73 (antibody, V domains shown)
VH: QVQLVQSGAEVKKPGASVKVSCKASGYTFTDYVISWVRQAPGQGLEWMGEIYPGSGNTYYYEKFKGRVTMTRDTSTSTVYMELSSLRSEDTAVYYCARVLVSVMDYWGQGTLVTVSS
VL: EIVLTQSPDFQSVTPKEKVTITCSASSSINYITWYQQKPDQSPKLLIKDTSKLASGVPSRFSGSGSGTDFTLTINSLEAEDAATYYCHQRSSYPWTFGQGTRLEIKR

Numbering of substitutions follows the chain as printed.

The Kd is the free concentration of one partner at which half of the binding sites on the other are occupied at equilibrium, for simple one-to-one binding.

This assay has as its target T1, human VISTA (human, UniProt Q9H7M9 33-194, limits assumed).
T1 construct: The ELISA text says only recombinant VISTA; also called recombinant VISTA
Kind of assay: method not stated (Table 1, column Kd, M).
The molecule B1 registered a Kd of 636 pM. Consider B2, for which binding was put at a Kd of 1480 pM. Molecule B3 displayed a Kd of 675 pM. Regarding B4, the Kd is 62.9 pM. This Kd lies about 11-fold lower than the previous one. As for B5, binding was characterised by a dissociation constant (Kd) of 1310 pM. Compared with the last molecule, the Kd is about 21-fold higher.

The molecule B6 displayed a dissociation constant Kd of 145 pM. Consider B7, for which the Kd was 152 pM.

B8 gave a Kd of 171 pM. B9 registered a Kd of 213 pM. With B10 the figure was 102 pM; with B11, 494 pM; with B12, 115 pM.

B13 gave a Kd of 89 pM. Molecule B14 returned a Kd of 167 pM. Molecule B15 yielded a Kd of 43.3 pM. B16 displayed a Kd of 202 pM. On to B17, for which binding was characterised by a dissociation constant (Kd) of 37.8 pM.

Turning to B18, the Kd was found to be 2030 pM. Compared with the last molecule, the Kd is about 54-fold higher.

With B19, binding was put at a Kd of 126 pM. For B20, the Kd was found to be 26.4 pM.

Molecule B21 gave a Kd of 2260 pM.

These data come from patent US20210017281A1 (IMMUNEXT, published 2021).
